Source: patent EP4667483A1 (JCR Pharmaceuticals Co., Ltd., dated 2024)
Blank lines part the entries; values can stand above or below the binder they belong to. Numbered stars: 1 amine (or outer) side, 2 acyl side, 3 side chain; on linkers, the order of the positions; unused ones are H or OH. Bridge positions count the residues as written; N and C are the ends. Square brackets hold non-standard residues; d marks the D form. * marks the point of attachment. F4aao = 4-(carboxymethoxy)-L-phenylalanine, O=C([C@H](Cc1ccc(OCC(=O)[*:3])cc1)N[*:1])[*:2]; X4 = 4‑(carboxymethyl)piperazine‑1‑carbonyl, O=C(O)CN1CCN(C(=O)*)CC1; NH(1-deoxy-D-glucityl) = OC[C@@H](O)[C@@H](O)[C@H](O)[C@@H](O)CN*; PEG4c = amino-tetraoxa (PEG4) carboxylic acid spacer; NMePhe(4-COOH) = CN[C@@H](Cc1ccc(C(=O)O)cc1)C(=O)O; Phe(3-COOH) = N[C@@H](Cc1cccc(C(=O)O)c1)C(=O)O; NMePhe(3-Cl) = CN[C@@H](Cc1cccc(Cl)c1)C(=O)O; Piperazinyl(4-CH2COOH) = O=C(O)CN1CCN(*)CC1; 3Pal(6-NH2) = Nc1ccc(C[C@H](N)C(=O)O)cn1; NMeW = CN[C@@H](Cc1c[nH]c2ccccc12)C(=O)O; Lys(N3) = [N-]=[N+]=NCCCC[C@H](N)C(=O)O; NMeY = CN[C@@H](Cc1ccc(O)cc1)C(=O)O; NMeF = CN[C@@H](Cc1ccccc1)C(=O)O

Key:
[1] = molecular target: T1, human transferrin receptor (hTfR) (human, UniProt P02786 89-760); assay: SPR; ratio of koff at pH 6.0 to koff at pH 7.4
T1 construct: also called human TfR; TfR1
T1 sequence (P02786 89-760 limits assumed): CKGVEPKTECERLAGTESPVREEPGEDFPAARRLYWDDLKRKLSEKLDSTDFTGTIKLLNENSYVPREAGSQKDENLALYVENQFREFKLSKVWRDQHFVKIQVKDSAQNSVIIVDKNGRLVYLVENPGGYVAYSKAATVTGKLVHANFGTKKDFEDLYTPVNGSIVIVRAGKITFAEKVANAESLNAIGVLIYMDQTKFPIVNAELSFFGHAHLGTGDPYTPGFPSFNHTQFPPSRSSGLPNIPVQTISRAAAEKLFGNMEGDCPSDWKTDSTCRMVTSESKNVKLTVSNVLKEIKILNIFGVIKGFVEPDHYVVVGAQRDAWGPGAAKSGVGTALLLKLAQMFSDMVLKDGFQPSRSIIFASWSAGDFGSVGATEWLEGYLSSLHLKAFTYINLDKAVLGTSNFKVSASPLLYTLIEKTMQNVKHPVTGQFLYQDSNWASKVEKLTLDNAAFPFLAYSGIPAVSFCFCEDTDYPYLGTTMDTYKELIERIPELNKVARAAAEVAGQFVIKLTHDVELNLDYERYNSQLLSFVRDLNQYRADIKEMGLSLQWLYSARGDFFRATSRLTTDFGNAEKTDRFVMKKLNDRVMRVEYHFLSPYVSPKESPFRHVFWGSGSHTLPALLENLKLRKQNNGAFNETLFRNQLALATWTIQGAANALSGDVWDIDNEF

[2] = molecular target: T1, human transferrin receptor (hTfR); assay: SPR, Biacore T200, hTfR immobilised on NTA chip, pH 6.0
[3] = molecular target: T1, human transferrin receptor (hTfR); assay: SPR; ratio of KD at pH 6.0 to KD at pH 7.4
[4] = molecular target: T1, human transferrin receptor (hTfR); assay: SPR, Biacore T200, hTfR captured by anti-His antibody on CM3 chip, pH 7.4
[5] = molecular target: T2, human transferrin receptor (hTfR) (human, UniProt P02786 89-760); assay: SPR, pH 6.0
T2 construct: a His tag is implied by the NTA chip and the anti-His capture; also called human TfR; TfR1
T2 sequence (P02786 89-760 limits assumed): as above

[6] = molecular target: T2, human transferrin receptor (hTfR); assay: SPR, koff pH 6.0 / koff pH 7.4
[7] = molecular target: T2, human transferrin receptor (hTfR); assay: SPR, KD pH 6.0 / KD pH 7.4
[8] = molecular target: T2, human transferrin receptor (hTfR); assay: SPR, pH 7.4
[9] = molecular target: T1, human transferrin receptor (hTfR); assay: SPR; ratio of koff at pH 6.0 to koff at pH 7.4; remark: listed apart in the source
[10] = molecular target: T1, human transferrin receptor (hTfR); assay: SPR, Biacore T200, hTfR captured by anti-His antibody on CM3 chip, pH 7.4; remark: listed apart in the source
[11] = molecular target: T1, human transferrin receptor (hTfR); assay: SPR, Biacore T200, hTfR immobilised on NTA chip, pH 6.0; remark: listed apart in the source
[12] = molecular target: T1, human transferrin receptor (hTfR); assay: SPR; ratio of KD at pH 6.0 to KD at pH 7.4; remark: listed apart in the source
[13] = molecular target: T3, human transferrin receptor (hTfR) (human, UniProt P02786 89-760); assay: SPR, Biacore T200, pH 7.4, hTfR captured by anti-His antibody on CM3 chip, single-cycle kinetics
T3 construct: also called human TfR; TfR1
T3 sequence (P02786 89-760 limits assumed): as above

[14] = molecular target: T2, human transferrin receptor (hTfR); assay: SPR, pH 6.0; remark: listed apart in the source
[15] = molecular target: T2, human transferrin receptor (hTfR); assay: SPR, pH 7.4; remark: listed apart in the source
[16] = molecular target: T4, human transferrin receptor (hTfR) (human, UniProt P02786 89-760); assay: SPR (Biacore T200), pH 6.0, hTfR on chip
T4 construct: Recombinant hTfR; at pH 7.4 captured on the chip by an anti-His tag antibody, at pH 6.0 immobilized on an NTA chip, so it carries a His tag; also called human TfR; TfR1
T4 sequence (P02786 89-760 limits assumed): as above

[17] = molecular target: T4, human transferrin receptor (hTfR); assay: SPR (Biacore T200), pH 7.4, hTfR on chip
[18] = molecular target: T4, human transferrin receptor (hTfR); assay: SPR, koff at pH 6.0 over koff at pH 7.4
[19] = molecular target: T4, human transferrin receptor (hTfR); assay: SPR, KD at pH 6.0 over KD at pH 7.4

Binder: {CH2CO}-AV[NMePhe(3-Cl)]VWNY[F4aao](Piperazinyl(4-CH2COOH))IIK(X4)QF[NMeY]C-{PEG4c-NH2} (thioether N-15) [894_0511 (SEQ ID NO: 38)]
- Kd [5]: 14.8 nM
- dependency koff pH6.0/7.4 [6]: 12.5
- dependency KD pH6.0/7.4 [7]: 3.12
- Kd [8]: 4.75 nM

B2: 894_0531 (SEQ ID No. 81) (peptide)
peptide: AVXVWNYXIIQRXXC
modifications: MeF3C at 3; F4OMe at 8; Eva at 9; F3COO at 13; MeF3COO at 14; cyclic: chloroacetylated N-terminal Ala 1 joined to Cys 15; linker PEG4c on C-terminus
notes: As printed: A-V-MeF3C-V-W-N-Y-F4OMe-Eva-I-Q-R-F3COO-MeF3COO-C, linker PEG4c
- dependency koff pH6.0/7.4 [9]: 13.5
- Kd [10]: 1.87 nM
- Kd [11]: 9.19 nM
- dependency KD pH6.0/7.4 [12]: 4.91

Binder: {CH2CO}-AV[NMePhe(3-Cl)]VWNY[F4aao](Piperazinyl(4-CH2COOH))IIE(NH(1-deoxy-D-glucityl))QF[NMeY]C-{PEG4c-NH2} (thioether N-15) [894_0510 (SEQ ID NO: 37)]
- Kd [5]: 27.9 nM
- dependency koff pH6.0/7.4 [6]: 33.9
- dependency KD pH6.0/7.4 [7]: 18.1
- Kd [8]: 1.54 nM

Binder: {CH2CO}-AV[NMePhe(3-Cl)]VWNY[F4aao](NH(1-deoxy-D-glucityl))IIE(NH(1-deoxy-D-glucityl))QF[NMeY]C-{PEG4c-NH2} (thioether N-15) [894_0512 (SEQ ID NO: 39)]
- Kd [5]: 12.4 nM
- dependency koff pH6.0/7.4 [6]: 25.6
- dependency KD pH6.0/7.4 [7]: 8.37
- Kd [8]: 1.48 nM

B5: 894_0518 (SEQ ID No. 72) (peptide)
peptide: {CH2CO}-AV[NMePhe(3-Cl)]VWNY[F4aao]IIQR[Phe(3-COOH)][NMeY]C-PEG4c
modifications: thioether N-15
notes: As printed: A-V-MeF3C-V-W-N-Y-F4aao-I-I-Q-R-F3COO-MeY-C, linker PEG4c
- dependency koff pH6.0/7.4 [9]: 5.72
- Kd [10]: 3.34 nM
- Kd [11]: 6.32 nM
- dependency KD pH6.0/7.4 [12]: 1.89

B8: 894_0530 (SEQ ID No. 80) (peptide)
peptide: AVXVWNYXIIQRXXC
modifications: MeF3C at 3; F4OMe at 8; Eva at 9; F3COO at 13; MeF4COO at 14; cyclic: chloroacetylated N-terminal Ala 1 joined to Cys 15; linker PEG4c on C-terminus
notes: As printed: A-V-MeF3C-V-W-N-Y-F4OMe-Eva-I-Q-R-F3COO-MeF4COO-C, linker PEG4c
- dependency koff pH6.0/7.4 [9]: 22.2
- Kd [10]: 0.529 nM
- Kd [11]: 5.73 nM
- dependency KD pH6.0/7.4 [12]: 10.8

Continued, values first:

- dependency koff pH6.0/7.4 [1]: 3.29
- Kd [2]: 13.8 nM
- dependency KD pH6.0/7.4 [3]: 1.81
- Kd [4]: 7.64 nM
B1: 894_0591 (SEQ ID No. 117) (peptide)
peptide: AVXVXNYYXIKRYXC
modifications: not fully specified; MeF at 3; MeW at 5; Eva at 9; MeY at 14; cyclic: chloroacetylated N-terminal Ala 1 joined to Cys 15; linker PEG4c on C-terminus
notes: As printed: A-V-MeF-V-MeW-N-Y-Y-Eva-I-K-R-Y-MeY-C, linker PEG4c

- Kd [13]: 531 nM
B3: 894_3495 (SEQ ID NO: 199) (peptide)
peptide: AVXVWNRYIIRRYXC
modifications: MeF at 3; MeY at 14; N-terminal Ala chloroacetylated and cyclised by thioether to Cys 15; linker G-de-de-de-ds-ds-KN3-NH2 on Cys 15 (de = D-Glu, ds = D-Ser, KN3 = azido-lysine, C-terminal amide)
notes: Cyclic peptide with linker

- Kd [14]: 32.3 nM
- Kd [15]: 8.74 nM
B4: 894_3434 (SEQ ID NO: 64) (peptide)
peptide: AVXVWNYXIIRRYXC
modifications: 3 MeF; 8 F4aao(PEG8Me); 14 MeY; chloroacetyl-Ala1 cyclised to Cys15; linker G-KN3 after Cys15; terminus -NH2
notes: The linker G-KN3 (Gly, N6-diazo-L-lysine) follows Cys15; whether the listing entry holds these two residues cannot be seen here

- Kd [13]: 1040 nM
B6: 894_3493 (SEQ ID NO: 198) (peptide)
peptide: AVXVWNRYIIRRYXC
modifications: MeF at 3; MeF4COO at 14; N-terminal Ala chloroacetylated and cyclised by thioether to Cys 15; linker G-de-de-de-ds-ds-KN3-NH2 on Cys 15 (de = D-Glu, ds = D-Ser, KN3 = azido-lysine, C-terminal amide)
notes: Cyclic peptide with linker

- Kd [14]: 7.47 nM
- Kd [15]: 0.861 nM
B7: 894_0610 (SEQ ID NO: 61) (peptide)
peptide: AVXVXNYYIIKRYXC
modifications: 3 MeF3C; 5 3Imp; 14 MeY; chloroacetyl-Ala1 cyclised to Cys15; linker PEG4c after Cys15; terminus -NH2

- Kd [16]: 13.9 nM
- Kd [17]: 2.94 nM
- dependency koff pH6.0/7.4 [18]: 8.92
- dependency KD pH6.0/7.4 [19]: 4.73
B9: 894_3486 (peptide)
peptide: {CH2CO}-AV[NMeF]V[NMeW]N[3Pal(6-NH2)]YIIKRY[NMePhe(4-COOH)]CG[Lys(N3)]-NH2
modifications: thioether N-15
SMILES: CC[C@H](C)[C@@H]1NC(=O)[C@H](Cc2ccc(O)cc2)NC(=O)[C@H](Cc2ccc(N)nc2)NC(=O)[C@H](CC(N)=O)NC(=O)[C@H](Cc2c[nH]c3ccccc23)N(C)C(=O)[C@H](C(C)C)NC(=O)[C@H](Cc2ccccc2)N(C)C(=O)[C@H](C(C)C)NC(=O)[C@H](C)NC(=O)CSC[C@@H](C(=O)NCC(=O)N[C@@H](CCCCN=[N+]=[N-])C(N)=O)NC(=O)[C@H](Cc2ccc(C(=O)O)cc2)N(C)C(=O)[C@H](Cc2ccc(O)cc2)NC(=O)[C@H](CCCNC(=N)N)NC(=O)[C@H](CCCCN)NC(=O)[C@H]([C@@H](C)CC)NC1=O

- dependency koff pH6.0/7.4 [1]: 4.21
- Kd [2]: 4.31 nM
- dependency KD pH6.0/7.4 [3]: 3.88
- Kd [4]: 1.11 nM
B10: 894_0592 (SEQ ID No. 118) (peptide)
peptide: AVXVXNYYIIKRYXC
modifications: not fully specified; MeF at 3; MeW at 5; MeF4COO at 14; cyclic: chloroacetylated N-terminal Ala 1 joined to Cys 15; linker PEG4c on C-terminus
notes: As printed: A-V-MeF-V-MeW-N-Y-Y-I-I-K-R-Y-MeF4COO-C, linker PEG4c
